The term Kd denotes the constant that tells how readily two partners part at equilibrium. A higher Kd goes with a looser complex.

The series deals with Thrombin (UniProt P00734+P00734). The series is described as follows: EMSA. The note with it: 0.1 nM aptamer, thrombin 0.1-12.8 nM; more than half bound at 0.1 nM thrombin. (A gel shift assay detects complexes by their altered migration in electrophoresis.)

“NTAGGDTGGGTAGGGTGGTNAGGGWTGATGYGTGGTAGGC [Bivalent aptamer AD]” returned a Kd of less than 100 pM.

These data come from patent publication US11168320.
